Assay results taken from paper PMC10570711, “Tetramerization of upstream stimulating factor USF2 requires the elongated bent leucine zipper of the bHLH-LZ domain” (The Journal of Biological Chemistry, 2023).

Tests used:
[1] = biological target: the molecule itself; assay: dynamic light scattering; USF2_bHLH-LZ-ext-DNA complexes, 400 μM sample; 100 mM KCl, 10 mM Hepes pH 7.5
[2] = biological target: the molecule itself; assay: SEC-MALS; 700 μM protein mixed with 350 μM E-box DNA, overnight at 4 °C; Superdex 75 Increase; 20 mM Hepes pH 7.5, 100 mM KCl, 10 mM DTT; 0.5 ml/min; the constant is of tetramer to dimers
[3] = biological target: the molecule itself; assay: crystal structure; USF2 235-346 cocrystallised with 18 bp double-stranded E-box DNA; sitting drop, 18 °C, 0.1 M Tris pH 7.0, 20% PEG4000; 3.5 Å; four protein chains in the asymmetric unit
[4] = biological target: T1, MBP-USF2_WT (human, UniProt Q15853 235-346); assay: fluorescence polarisation; fluorescence anisotropy; 10 nM 5IAF-labelled USF2_WT, MBP-USF2 proteins titrated 0-6 μM; 20 mM Tris 8.0, 50 mM KCl, 2 mM MgCl2, 0.5% glycerol; 4 °C overnight; apparent; dimer to monomers; conditions: both partners purified
T1 construct: Upstream stimulating factor 2 (USF2), human, isoform 1, residues 235-346 (bHLH-LZ-Ext domain); Built in a pHis-MBP-TEV vector; a TEV site lies between the tag and USF2; also called 6×HisMBP-USF2_WT; source: E. coli Rosetta (DE3), purified (Ni-HiTrap, Superdex 75); not shown: His6, N-terminal, kept; MBP, N-terminal, kept

[5] = biological target: T2, MBP-USF2 R248A (Homo sapiens, UniProt Q15853 235-346, R248A); assay: fluorescence anisotropy; FA: 20 nM FAM-DNA, 20 mM Tris pH 8.0, 50 mM KCl, 2 mM MgCl2, 0.5% glycerol, 4 C, 3 h; EMSA: 100 nM Cy3-DNA, 10 mM Tris pH 8.0, 50 mM KCl, 1 mM DTT, 2 mM MgCl2; conditions: protein: recombinant; tags: 6xHis-MBP N-terminal; chain copies: 2; label: 5'-FAM on strand 1; blunt as printed if S3 is read 3'-5' (printed with 5'-3' labels)
T2 sequence: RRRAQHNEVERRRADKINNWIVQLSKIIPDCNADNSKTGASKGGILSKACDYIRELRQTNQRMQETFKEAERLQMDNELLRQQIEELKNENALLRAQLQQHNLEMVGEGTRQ

[6] = biological target: T3, MBP-USF2 E244A (Homo sapiens, UniProt Q15853 235-346, E244A); assay: as above; conditions: protein: recombinant; tags: 6xHis-MBP N-terminal; chain copies: 2; label: 5'-FAM on strand 1; blunt as printed if S3 is read 3'-5' (printed with 5'-3' labels)
T3 sequence: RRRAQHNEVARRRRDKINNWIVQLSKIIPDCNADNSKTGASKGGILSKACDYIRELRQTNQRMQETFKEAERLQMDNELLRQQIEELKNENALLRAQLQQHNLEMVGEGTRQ

[7] = biological target: T4, MBP-USF2 R247A (Homo sapiens, UniProt Q15853 235-346, R247A); assay: as above; conditions: protein: recombinant; tags: 6xHis-MBP N-terminal; chain copies: 2; label: 5'-FAM on strand 1; blunt as printed if S3 is read 3'-5' (printed with 5'-3' labels)
T4 sequence: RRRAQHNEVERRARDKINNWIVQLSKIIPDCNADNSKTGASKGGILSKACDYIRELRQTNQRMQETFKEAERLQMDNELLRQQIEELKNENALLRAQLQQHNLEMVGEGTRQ

[8] = biological target: T5, MBP-USF2 E244K (Homo sapiens, UniProt Q15853 235-346, E244K); assay: as above; conditions: protein: recombinant; tags: 6xHis-MBP N-terminal; chain copies: 2; label: 5'-FAM on strand 1; blunt as printed if S3 is read 3'-5' (printed with 5'-3' labels)
T5 sequence: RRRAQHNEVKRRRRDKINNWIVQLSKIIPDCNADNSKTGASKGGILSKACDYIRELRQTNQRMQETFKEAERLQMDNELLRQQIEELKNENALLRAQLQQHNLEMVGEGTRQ

[9] = biological target: MBP-USF2 H240A (Homo sapiens, UniProt Q15853 235-346, H240A); assay: as above; conditions: protein: recombinant; tags: 6xHis-MBP N-terminal; chain copies: 2; label: 5'-FAM on strand 1; blunt as printed if S3 is read 3'-5' (printed with 5'-3' labels)
[10] = biological target: MBP-USF2_ΔLZ-Ext (Homo sapiens, UniProt Q15853 235-292); assay: as above; conditions: protein: recombinant; tags: 6xHis-MBP N-terminal; chain copies: 2; label: 5'-FAM on strand 1; blunt as printed if S3 is read 3'-5' (printed with 5'-3' labels)
[11] = biological target: USF2_Q334K (Homo sapiens, UniProt Q15853 235-346, Q334K); assay: fluorescence anisotropy; similar to USF2_WT; FA: 20 nM FAM-DNA, 20 mM Tris pH 8.0, 50 mM KCl, 2 mM MgCl2, 0.5% glycerol, 4 C, 3 h; EMSA: 100 nM Cy3-DNA, 10 mM Tris pH 8.0, 50 mM KCl, 1 mM DTT, 2 mM MgCl2; conditions: protein: recombinant; chain copies: 2; label: 5'-FAM on strand 1; blunt as printed if S3 is read 3'-5' (printed with 5'-3' labels)
Chain of USF2_Q334K (Q15853 235-346 Q334K): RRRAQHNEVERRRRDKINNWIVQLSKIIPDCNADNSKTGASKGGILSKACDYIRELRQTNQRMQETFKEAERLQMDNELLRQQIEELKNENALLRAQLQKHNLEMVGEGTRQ

Chain of MBP-USF2 H240A (Q15853 235-346 H240A): as the sequence (Q15853 235-346 Q334K) above, with H6A, K100Q counted along it

B1: USF2_bHLH-LZ-Ext (human USF2 isoform 1, residues 235-346) (domain or fragment, UniProt Q15853 235-346, looked up)
chain: RRRAQHNEVERRRRDKINNWIVQLSKIIPDCNADNSKTGASKGGILSKACDYIRELRQTNQRMQETFKEAERLQMDNELLRQQIEELKNENALLRAQLQQHNLEMVGEGTRQ
notes: Upstream stimulating factor 2 (USF2), human, isoform 1, residues 235-346 (basic region to the C terminus; bHLH-LZ-Ext); In the crystal, SEC-MALS and DLS experiments the protein was in complex with 18 bp E-box DNA; His-MBP tag removed with TEV protease; also called USF2_WT; bHLH-LZ-Ext domain of USF2; source: E. coli Rosetta (DE3), purified (Ni-HiTrap, Superdex 75; TEV cleavage, HiTrap SP, S75); …
With B1 the “stoichiometry N” value [1] was 4, the Kd [2] was ~800000 nM and the “stoichiometry N” value [3] was 2.

B2: USF2_E312R_E320R (bHLH-LZ-Ext domain, residues 235-346, double mutant) (domain or fragment, human, UniProt Q15853 235-346, looked up)
chain: RRRAQHNEVERRRRDKINNWIVQLSKIIPDCNADNSKTGASKGGILSKACDYIRELRQTNQRMQETFKEAERLQMDNRLLRQQIERLKNENALLRAQLQQHNLEMVGEGTRQ
notes: Upstream stimulating factor 2 (USF2), human, isoform 1, residues 235-346 (bHLH-LZ-Ext domain) with E312R and E320R; Generated on the construct MBP-USF2_WT; also called E312R/E320R double mutation; tetramer interface mutant; source: E. coli Rosetta (DE3), purified (Ni-HiTrap, Superdex 75)
In the case of B2, the “stoichiometry N” value [2] is reported as 2.

B3: 5IAF-labelled USF2_WT (5IAFUSF2_WT; labelled CGG-USF2_WT) (domain or fragment, human)
chain: CGGRRRAQHNEVERRRRDKINNWIVQLSKIIPDCNADNSKTGASKGGILSKACDYIRELRQTNQRMQETFKEAERLQMDNELLRQQIEELKNENALLRAQLQQHNLEMVGEGTRQ
modifications: 5-iodoacetamido-fluorescein (5-IAF) on the sulfhydryl cysteine end of CGG-USF2_WT
notes: CGG added before USF2 for labelling with 5-IAF (construct MBP-CGG-USF2_WT); Upstream stimulating factor 2 (USF2), human, isoform 1, residues 235-346 (bHLH-LZ-Ext domain); Made from MBP-CGG-USF2_WT by TEV cleavage of the His-MBP tag; also called 5IAF labeled USF2_WT; source: E. coli Rosetta (DE3), purified (Ni-HiTrap, TEV cleavage, HiTrap SP, S75), labelled with 5-IAF; not shown: His6, N-terminal, …
B3 was tested, and the Kd [4] was 100 ± 19 nM.

B4: FAM E-box DNA (dsDNA)
DNA 1: GACGGGCACGTGACGCGC
DNA 2: GCGCGTCACGTGCCCGTC
With B4 the Kd [5] was 460 ± 79 nM, the Kd [6] was 72 ± 23 nM and the Kd [7] was 250 ± 67 nM. The Kd [8] was 290 ± 98 nM, the Kd [9] was 210 ± 43 nM and the binding signal [10] was > 20 fold decrease vs USF2_WT. B4: binds [11].
